Assay results reported in patent US6979460B1, “Vinyl ether lipids with cleavable hydrophlic headgroups” (Purdue Research Foundation, priority 1999, dated 2005).

Key:
[1] = Acid-triggered calcein release from DOPE:vinyl ether lipid vesicles (calcein fluorescence dequenching assay); format: physicochemical
Experimental: DOPE and the labile PEG lipid were co-dissolved in chloroform that had been prefiltered through a 2.53 cm plug of anhydrous sodium carbonate to remove traces of acid and water from the solvent. This solution was evaporated under a gentle stream of N2 and further dried under vacuum (<200 μ, 4 h). Vesicles were formed by hydrating the lipid film in the presence of 50 mM calcein using five LN2 freeze-thaw-vortex cycles. This suspension was then extruded at 50° C. through two 100 nm track-etch polycarbonate membrane filters. Extraliposomal calcein was removed using a single pass through a 40 cm Sephadex G-50 gel column equilibrated with 150 mM NaCl. The fraction eluting at the void volume was collected and stored at 8° C. until use. Light-sensitive vesicles were prepared in the same manner, except that bacteriochlorophyll a (Bchl) was codissolved in the chloroform lipid solution. Other agents or mixtures of agents, such as therapeutic compounds or diagnostic agents, are substituted for calcein in the above protocol resulting in liposomal encapsulation of the substituted agent.
Vesicle release of the liposomes made in example 4 above, was monitored at 37° C. as a function of time using the calcein fluorescence dequenching assay. Acid-trigged release was initiated by dilution of the vesicles into an acidic buffer solution as described by Gerasimov et al. Light-triggered release was promoted by aerobic illumination (800 nm, 1 W) of a continuously stirred 1 cm quartz cuvette with a SDL 820 diode laser coupled to an optical fiber. The fiber was mounted perpendicular to the cuvette surface to produce a spot of ˜3 mm diameter. Both triggering methods were conducted either in the absence or presence of ten-fold excess of egg phosphatidylcholine (EPC) vesicles as a membrane “sink”.

[2] = DOPE:CVEP/calcein vesicles with DSPE-PEG3350-folate as targeting ligand

Substance	t50% release ([1]; 98:2 DOPE:DVEP vesicles, pH 4.5, in the absence of sink EPC)	calcein leakage ([1]; 98:2 DOPE:DVEP vesicles, pH 7.4, sink EPC present or not)	t50% release ([1]; 98:2 DOPE:lipid vesicles (identical loadings), pH 4.5, 37° C.) [min]	cellular calcein fluorescence pattern (cytoplasmic delivery) [2]
rac-1,2-Dioleyl-3-(4′-hydroxy-1′-butenyl)-glyceryl polyethylene [125] glycolate [DVEP]	≈ 3 h	lack of leakage	23	–
4-o-Cholesteryl-(3Z-buten-1-yl)-polyethylene [125] glycolate [CVEP]	–	–	–	punctuated fluorescence, followed by diffuse cytoplasmic fluorescence
